Measured values from patent US11926678B2, “Composite polypeptide having a metal binding motif and molecular construct comprising the same” (Immunwork Inc., priority 2020, dated 2024).

Columns and labels:
[1] = Half-life in BALB/c mice after i.v. administration (serum ELISA); assay type: in vivo; settings: about 200 μL of 3.33 μM protein
Method: The measurement of half-lives of the stabilized 2-chain (scFv α CD19)-Fc-MBM-1×2 DOTA bundles was carried out in mice after i.v. administration. The (scFv α CD19)-Fc-MBM-1×2 DOTA bundles in the serum sample was observed using ELISA. 8 to 10-week-old BALB/c mice were purchased from BioLasco, Taipei, Taiwan. Mice were grouped into three mice per group, and were injected intravenously with about 200 μL of 3.33 μM protein.

[2] = biological target: T1, human CD19 on human B lymphoma cell line Raji (Homo sapiens, UniProt P15391); experiment: Cell staining (FACS) binding to CD19-expressing Raji cells; assay type: cell-based; settings: 0.001 μg/ml, on ice 30 minutes
T1 construct: incubating 1×10^6 CD19-expressing Raji cells with 0.001 μg/ml of each construct; endogenous in cells; host or cells: Raji (human B lymphoma cell line)
T1 sequence (P15391 20-556): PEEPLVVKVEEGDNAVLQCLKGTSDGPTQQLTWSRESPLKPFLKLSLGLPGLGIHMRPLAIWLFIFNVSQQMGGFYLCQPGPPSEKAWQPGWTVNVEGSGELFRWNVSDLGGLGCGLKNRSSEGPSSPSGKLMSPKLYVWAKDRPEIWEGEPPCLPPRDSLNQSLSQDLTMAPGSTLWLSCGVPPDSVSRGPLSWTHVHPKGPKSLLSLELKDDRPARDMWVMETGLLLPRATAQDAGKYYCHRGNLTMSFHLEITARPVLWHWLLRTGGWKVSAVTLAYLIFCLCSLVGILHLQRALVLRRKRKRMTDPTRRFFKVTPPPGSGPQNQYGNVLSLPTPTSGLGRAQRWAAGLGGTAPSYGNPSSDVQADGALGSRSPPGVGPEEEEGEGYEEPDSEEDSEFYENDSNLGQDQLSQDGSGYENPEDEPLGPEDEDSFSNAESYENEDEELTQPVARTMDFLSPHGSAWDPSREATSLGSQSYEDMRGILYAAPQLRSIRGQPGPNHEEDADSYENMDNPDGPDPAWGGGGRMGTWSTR
Method: (§1) Two stabilized molecular constructs, (scFv α CD19)-Fc-MBM-1×2 DOTA bundles and (scFv α CD19)-Fc-MBM-3×2 DOTA bundles, were analyzed for their ability to bind to human CD19 on human B lymphoma cell line Raji. The assay was performed by incubating 1×10^6 CD19-expressing Raji cells with 0.001 μg/ml of each construct in PBS, 1% BSA on ice for 30 minutes, using anti-CD19 antibody (RB4v1.2), (scFv α CD19)-Fc-MBM-1×2 DOTA bundles and (scFv α CD19)-Fc-MBM-3×2 DOTA bundles as positive controls. The anti-HER2 antibody (trastuzumab) was used as a negative control. The staining of cells was analyzed by FACS (FACSCanto II; BD Biosciences) using FITC-conjugated goat anti-human IgG.Fc (diluted 1:200 in PBS/BSA) (Caltag, Buckingham, UK) at 4° C. for 20 minutes in the dark.

[3] = system: CD19-expressing tumors (Raji xenograft); experiment: Biodistribution by tissue ELISA in CD19-expressing xenograft tumor model; assay type: in vivo, NOD-SCID mice; settings: day 7 after i.v. injection
Method: For biodistribution analysis of the stabilized (scFv α CD19)-Fc-MBM-1×2 DOTA bundles in xenograft mouse model, the procedure set forth in Example 32 was used with some modifications.
Briefly, the mice were injected subcutaneously with 1×10^7 B-cell lymphoma Raji cells per mouse 2 to 3 weeks before the treatment. The mice were grouped into three mice per group, and were injected intravenously with about 200 μL of 6.65 μM labeled molecule.
Biodistribution of NOD-SCID mice were analyzed by tissue ELISA at 7 days after the administration of the stabilized 2-chain (scFv α CD19)-Fc-MBM-1×2 DOTA bundles and the anti-CD19 antibody. Briefly, the animals were sacrificed at day 7 after injection. Blood was hemospasia from the heart, and tissue samples from 11 organs were collected. Tissues samples were homogenized using homogenizer and analyzed further for measuring the concentration of the injected molecules by ELISA.

[4] = Stability with glutathione or human serum albumin, SDS-PAGE; assay type: in vitro ADME; settings: 37° C., 30 days
Method: To evaluate the stability of the stabilized 2-chain (scFv α CD19)-Fc-MBM-1×2 DOTA bundles, the molecular constructs were placed in Tris buffer (100 mM Tris buffer at pH 7.3, 50 mM Bis-Tris buffer, and 290 mM NaCl) with glutathione or human serum albumin, and then incubated at 37° C. for 30 days.

[5] = biological target: T2, human CD19 on human B lymphoma cell lines Ramos (Homo sapiens, UniProt P15391); experiment: Cell staining (FACS) binding to CD19-expressing Ramos cells; assay type: cell-based
T2 construct: two molecular constructs containing MBM-1 and MBM-3 on CD19-expressing Ramos cells; endogenous in cells; host or cells: Ramos (human B lymphoma cell line)
T2 sequence (P15391 20-556): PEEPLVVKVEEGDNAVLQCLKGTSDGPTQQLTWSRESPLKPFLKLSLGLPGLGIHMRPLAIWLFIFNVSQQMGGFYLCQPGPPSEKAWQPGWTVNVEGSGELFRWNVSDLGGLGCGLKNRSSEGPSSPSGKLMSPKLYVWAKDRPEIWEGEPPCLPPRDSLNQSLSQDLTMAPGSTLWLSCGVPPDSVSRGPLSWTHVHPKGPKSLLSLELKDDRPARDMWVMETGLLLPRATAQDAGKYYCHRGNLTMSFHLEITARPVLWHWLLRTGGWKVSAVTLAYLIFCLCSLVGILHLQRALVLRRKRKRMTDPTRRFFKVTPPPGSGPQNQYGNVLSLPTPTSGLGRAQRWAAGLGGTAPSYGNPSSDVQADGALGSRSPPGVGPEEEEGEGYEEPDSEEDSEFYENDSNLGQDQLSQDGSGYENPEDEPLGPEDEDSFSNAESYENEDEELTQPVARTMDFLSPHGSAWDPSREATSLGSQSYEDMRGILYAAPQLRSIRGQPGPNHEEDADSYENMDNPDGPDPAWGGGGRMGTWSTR
Method: as §1
These molecular constructs were also analyzed for their ability to bind to human CD19 on human B lymphoma cell lines Ramos. The assay was performed using the protocol similar to the one used in cell binding assay with Raji cells. The staining of Ramos cells was analyzed by FACS (FACSCanto II; BD Biosciences) using FITC-conjugated goat anti-human IgG.Fc, where anti-CD19 IgG is used as a positive control. The anti-HER2 antibody (trastuzumab) was used as a negative control. […]

[6] = system: CD19-expressing tumors (Raji xenograft); experiment: IVIS imaging of targeting to CD19-expressing xenograft tumor; assay type: in vivo, NOD-SCID mice
Text: In this Example, in vivo imaging system (IVIS) was used to investigate the targeting effect of the stabilized 2-chain (scFv α CD19)-Fc-MBM-1×2 DOTA bundles to CD19-expressing tumors in mouse xenograft model. Prior to IVIS imaging, a Dylight 680 Antibody Labeling Kit (Thermo Scientific) was used to conjugate the stabilized 2-chain (scFv α CD19)-Fc-MBM-1×2 DOTA bundles from Example 19 and the anti-CD19 antibody (RB4v1.2), according to the manufacturer's instructions.
8 to 10-week-old NOD-SCID (NOD.CB17-Prkdc^scid/JNarl) were purchased from Laboratory Animal Facility of Institute of Cellular and Organismic Biology, Academia Sinica, Taipei, Taiwan. The mice were injected intraperitoneally with 1×10^7 B-cell lymphoma Raji cells per mouse 2 weeks before the treatment. The mice were grouped into three mice per group, and were injected intravenously with about 200 μL of 6.65 μM labeled molecule. At various time points, mice were anaesthetized with isoflurane in O2 and placed in the IVIS Spectrum In Vivo Imaging System (PerkinElmer) with a supine position. […] Images were captured at indicated time points using IVIS Spectrum imager and analyzed with Living Image software.
Fluorescent images from NOD-SCID mice were captured and analyzed at 0 hour, 24 hours, 48 hours, and 72 hours after the administration of DyLight 680-conjugated proteins. […]

[7] = Examination of retro-Michael addition product, Western blot; assay type: in vitro ADME; settings: 37° C., 30 days, compared with stock at 4° C.
Method: A further confirmation of the stability of the 2-chain (scFv α CD19)-Fc-MBM-1×2 DOTA bundles, the stabilized molecular construct was incubated with glutathione or HSA and then analyzed using Western blot.
For the western blot analysis of the stabilized samples, briefly, the samples were separated on 8% SDS-PAGE gels and transferred to a poly(vinylidene fluoride) (PVDF) membrane (Millipore). The membrane blots were blocked in PBS containing 5% BSA and 0.05% Tween 20 for 1 hour at room temperature. After washing 3 times with phosphate buffered saline tween-20 (PBST) containing PBS and 0.05% Tween-20, the blots were incubated with goat anti-human IgG.Fc antibody conjugated with horseradish peroxidase (Millipore). Then the membranes were washed 3 times with PBST, and immunoreacted bands were detected using ECL™ western blotting detection reagents (Millipore) and exposed on Fujifilm (Tokyo, Japan).

Molecule | half-life [1] | binding to Raji cells (cell staining) [2] | targeting of CD19-expressing tumors (tissue-to-blood ratio biodistribution) [3] | stability while incubated with glutathione or human serum albumin ([4]; SDS-PAGE) | intact molecular construct still in solution without retro-Michael addition product ([4]; HSA-treated group) | intact molecular construct still in solution without retro-Michael addition product ([4]; glutathione-treated group) | binding to Ramos cells (cell staining) [5] | penetration into tumors compared with normal organ ([6]; 24, 48 and 72 hours after i.v. injection, DyLight 680-labeled) | targeting effect to CD19-expressing tumors ([6]; mouse xenograft model) | stability while incubated with glutathione or HSA [7]
stabilized 2-chain (scFv α CD19)-Fc-MBM-1×2 DOTA bundles: 2-chain anti-CD19 scFv-Fc fusion with MBM-1 (ACPGHA), two Mal-Peptide 2-DOTA bundles conjugated, maleimide ring opened (conjugate) EIVLTQSPAIMSASPGERVTMTCSASSGVNYMHWYQQKPGTSPRRWIYDTSKLASGVPARFSGSGSGTDYSLTISSMEPEDAATYYCHQRGSYTFGGGTKLEIKRGSTSGSGKPGSGEGSTKGQVQLVQPGAEVVKPGASVKLSCKTSGYTFTSNWMHWVKQAPGQGLEWIGEIDPSDSYTNYNQNFQGKAKLTVDKSTSTAYMEVSSLRSDDTAVYYCARGSNPYYYAMDYWGQGTSVTVSSGGGASDKTHTCPPCPAPELLGGPSVFLFPPKPKDTLMISRTPEVTCVVVDVSHEDPEVKFNWYVDGVEVHNAKTKPREEQYNSTYRVVSVLTVLHQDWLNGKDYKCKVSNKALPAPIEKTISKAKGQPREPQVYTLPPSRDELTRNQVSLTCLVKGFYPSDIAVEWESNGQPENNYKTTPPVLDSDGSFFLYSKLTVDKSRWQQGNVFSCSVMHEALHNHYTQKSLSLSPGGGGACPGHA | ~193.5 h | bound to Raji cells substantially positively | can target CD19-expressing tumors | satisfactory stability | approximately 90% | approximately 90% | bound to Ramos cells substantially positively | significantly greater | satisfactory targeting effect | satisfactory stability
(scFv α CD19)-Fc-MBM-1 fusion protein: scFv specific for human CD19 (from RB4v1.2) fused to IgG1.Fc, GGGG linker and MBM-1 ACPGHA; SEQ ID NO: 13 (protein) EIVLTQSPAIMSASPGERVTMTCSASSGVNYMHWYQQKPGTSPRRWIYDTSKLASGVPARFSGSGSGTDYSLTISSMEPEDAATYYCHQRGSYTFGGGTKLEIKRGSTSGSGKPGSGEGSTKGQVQLVQPGAEVVKPGASVKLSCKTSGYTFTSNWMHWVKQAPGQGLEWIGEIDPSDSYTNYNQNFQGKAKLTVDKSTSTAYMEVSSLRSDDTAVYYCARGSNPYYYAMDYWGQGTSVTVSSGGGASDKTHTCPPCPAPELLGGPSVFLFPPKPKDTLMISRTPEVTCVVVDVSHEDPEVKFNWYVDGVEVHNAKTKPREEQYNSTYRVVSVLTVLHQDWLNGKDYKCKVSNKALPAPIEKTISKAKGQPREPQVYTLPPSRDELTRNQVSLTCLVKGFYPSDIAVEWESNGQPENNYKTTPPVLDSDGSFFLYSKLTVDKSRWQQGNVFSCSVMHEALHNHYTQKSLSLSPGGGGACPGHA | ~179.6 h |  |  |  |  |  |  |  |  | 
